{"source": "paper PMC8635433", "key": {"[1]": {"molecular_target": "ChAdOx1 fiber knob protein (chimpanzee adenovirus Y25)", "assay": "crystal structure; ChAdOx1 fiber knob, P1, 1.59 Å, four trimers in the asymmetric unit"}, "[2]": {"molecular_target": "coxsackie and adenovirus receptor (CAR), immobilised for SPR (UniProt P78310)", "assay": "SPR; BIAcore T200; about 2000 RU of CAR, DSG2 and CD46 amine-coupled to a CM5 chip; fiber knob proteins flowed over, 1:2 serial dilutions; 25°C, PBS with 0.001% P20, 30 μl/min; 1:1 interaction model"}, "[3]": {"molecular_target": "ChAdOx1 hexon (chimpanzee adenovirus Y25)", "assay": "cryo-EM structure"}, "[4]": {"molecular_target": "ChAdOx1 pIX (chimpanzee adenovirus Y25)", "assay": "cryo-EM structure"}, "[5]": {"molecular_target": "ChAdOx1 penton protein (chimpanzee adenovirus Y25)", "assay": "cryo-EM structure"}, "CAR on CHO-CAR cells": {"molecular_target": "CAR on CHO-CAR cells (UniProt P78310)", "sequence (P78310 20-365)": "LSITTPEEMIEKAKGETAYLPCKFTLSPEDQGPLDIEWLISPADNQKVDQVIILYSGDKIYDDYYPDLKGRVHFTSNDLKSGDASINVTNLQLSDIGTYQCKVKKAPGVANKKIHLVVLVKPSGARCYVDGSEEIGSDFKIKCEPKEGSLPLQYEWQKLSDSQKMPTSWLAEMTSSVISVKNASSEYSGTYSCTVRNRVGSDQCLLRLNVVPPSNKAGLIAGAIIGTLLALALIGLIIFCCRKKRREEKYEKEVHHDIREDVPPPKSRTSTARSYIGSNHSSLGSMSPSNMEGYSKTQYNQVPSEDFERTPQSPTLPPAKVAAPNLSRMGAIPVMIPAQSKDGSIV", "assay": "flow cytometry on cells; antibody binding inhibition: serial dilutions of fiber knob (0.00001 to 100 μg per 10^5 cells) on CHO-CAR or CHO-BC1 cells, 30 min on ice, then anti-CAR RmcB or anti-CD46 MEM-258 and Alexa Fluor 488 secondary antibody; IC50 by nonlinear regression"}, "[6]": {"molecular_target": "human adenovirus type 5 (HAdV-C5) viral vector (virus particle) (human adenovirus type 5) (UniProt P04133)", "assay": "SPR"}, "[7]": {"molecular_target": "AZD1222 vaccine preparation of ChAdOx1 (ChAdOx1 nCoV-19) (chimpanzee adenovirus Y25)", "assay": "SPR"}, "[8]": {"molecular_target": "human adenovirus type 26 (HAdV-D26) viral vector (virus particle) (human adenovirus type 26)", "assay": "SPR"}}, "data": [{"substance": "ChAdOx1 fiber knob protein (domain or fragment)", "values": [{"measurement": "stoichiometry N", "setting": "[1]", "value": 3}]}, {"substance": "ChAdOx1 fiber knob protein (domain or fragment; other documents disagree on this pair)", "values": [{"measurement": "Kd", "setting": "[2]", "value": 7.16, "unit": "nM"}]}, {"substance": "ChAdOx1 hexon (natural protein)", "values": [{"measurement": "stoichiometry N", "setting": "[3]", "value": 3}]}, {"substance": "ChAdOx1 pIX (natural protein)", "values": [{"measurement": "stoichiometry N", "setting": "[4]", "value": 4}]}, {"substance": "ChAdOx1 penton protein (natural protein)", "values": [{"measurement": "stoichiometry N", "setting": "[5]", "value": 5}]}, {"substance": "HAdV-B35 fiber knob protein (domain or fragment)", "values": [{"measurement": "fold higher IC50 (reference not named: HAdV-C5 or ChAdOx1 fiber knob)", "setting": "CAR on CHO-CAR cells", "value": "> 1000", "unit": "fold"}]}, {"substance": "platelet factor 4 (PF4) (natural protein)", "values": [{"measurement": "Kd", "setting": "[6]", "value": 789, "unit": "nM"}, {"measurement": "Kd", "setting": "[7]", "value": 514, "unit": "nM"}, {"measurement": "Kd", "setting": "[8]", "value": 301, "unit": "nM"}]}]}
